According to patent US20210317231A1 (BYONDIS B V, published 2021):
Positions count from the first letter of the chain named.

How the values were obtained:
[1] = molecular target: T1, cynomolgus monkey 5T4 antigen (cynomolgus monkey, UniProt Q4R8Y9 35-420); assay: flow cytometry, CHOZN cells expressing cyno 5T4
T1 construct: whole, on cells; also called cyno 5T4
T1 sequence (looked up): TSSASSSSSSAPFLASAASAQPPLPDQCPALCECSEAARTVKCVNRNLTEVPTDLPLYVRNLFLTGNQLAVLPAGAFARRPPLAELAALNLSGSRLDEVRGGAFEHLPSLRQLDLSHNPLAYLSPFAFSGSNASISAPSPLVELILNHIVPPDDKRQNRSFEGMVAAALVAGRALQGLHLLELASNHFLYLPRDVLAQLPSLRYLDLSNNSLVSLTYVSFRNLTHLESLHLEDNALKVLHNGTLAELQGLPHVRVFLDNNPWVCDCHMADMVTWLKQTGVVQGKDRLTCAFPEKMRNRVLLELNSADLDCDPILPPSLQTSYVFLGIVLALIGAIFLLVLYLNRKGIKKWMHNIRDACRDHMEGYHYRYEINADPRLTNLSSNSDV

[2] = molecular target: T2, human 5T4 oncofoetal antigen (human, UniProt Q13641 32-420); assay: flow cytometry, CHOZN cells expressing hu 5T4
T2 construct: whole, on cells; also called hu 5T4; human 5T4 antigen
T2 sequence (looked up): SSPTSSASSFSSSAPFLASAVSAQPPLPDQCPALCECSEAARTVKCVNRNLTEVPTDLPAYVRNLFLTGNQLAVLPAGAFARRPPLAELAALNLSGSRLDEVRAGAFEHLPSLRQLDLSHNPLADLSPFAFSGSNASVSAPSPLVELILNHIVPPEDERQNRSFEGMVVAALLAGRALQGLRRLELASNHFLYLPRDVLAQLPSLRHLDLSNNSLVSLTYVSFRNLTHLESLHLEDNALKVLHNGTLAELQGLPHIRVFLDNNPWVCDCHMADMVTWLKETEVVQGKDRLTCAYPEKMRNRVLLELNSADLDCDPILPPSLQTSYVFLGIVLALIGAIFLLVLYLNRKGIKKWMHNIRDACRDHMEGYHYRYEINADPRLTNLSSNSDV

B1: humanized anti-5T4 antibody 825a with HC-41C mutation (antibody, human IgG1, kappa, V domains shown)
VH: EVQLVESGGDLAQPGGSLRLSCAVSGIDLSSYGMGWVRQACGKGLEWVSIISRNSVTYYATWAKGRFTISRDNSKNTVYLQMTSLRAEDTALYFCARRATYSGALGYFDIWGQGTLVTVSS
VL: EIVMTQSPSSLSASVGDRVTITCQASENIYSTLAWYQQKPGKAPKLLIYDAFDLASGVPSRFSGSGSGTDYTLTISSLQPEDFATYYCQQGYSGTNVDNAFGQGTKLEIKR
EC50 [1]: 0.53 µg/mL
EC50 [2]: 0.15 µg/mL

B2: humanized anti-5T4 antibody 825c with HC-41C mutation (antibody, human IgG1, kappa, V domains shown)
VH: B1 VH with V5E, D10G, A12V, Q13K, V24A, V78L, T83N, L92V, F94Y, Q113R
VL: B1 VL with E1G, I2Y, V3D, L11V, S63K, D70E, Q103G, L107V
EC50 [1]: 0.42 µg/mL
EC50 [2]: 0.21 µg/mL
